Test results reported in US20090324579A1 (UNIVERSITY OF WINDSOR, published 2009).

B1: Casp1 VHH displayed on phage (VHH)
VHH: DVQLQASGGGLVQPGGSLRLSCAASGSLSRITVMGWYRQAPGKQRELVAIITSSGGTNYADSVKGRFTISRDNAKNTVYLQMNSLKPEDTAVYYCLAARGYDRYWGRGTQVTVSS
notes: also called Casp1 sdAb
B2: Casp2 VHH displayed on phage (VHH)
VHH: DVQLQASGGGLVQAGGSLRLSCAASTNIFRDKFMAWYRQAPGKQRELVASITTGGRTDYADSVKGRFTISRDNTKDTMYLQMNSLKPEDTAVYYCAGFLGRTYWGQGTQVTVSS
notes: also called Casp2 sdAb

Biological target: T1, BSA (UniProt P02769 25-607)
T1 construct: also called control BSA antigen; control antigen
Test: phage ELISA

T1 sequence (P02769 25-607 limits assumed): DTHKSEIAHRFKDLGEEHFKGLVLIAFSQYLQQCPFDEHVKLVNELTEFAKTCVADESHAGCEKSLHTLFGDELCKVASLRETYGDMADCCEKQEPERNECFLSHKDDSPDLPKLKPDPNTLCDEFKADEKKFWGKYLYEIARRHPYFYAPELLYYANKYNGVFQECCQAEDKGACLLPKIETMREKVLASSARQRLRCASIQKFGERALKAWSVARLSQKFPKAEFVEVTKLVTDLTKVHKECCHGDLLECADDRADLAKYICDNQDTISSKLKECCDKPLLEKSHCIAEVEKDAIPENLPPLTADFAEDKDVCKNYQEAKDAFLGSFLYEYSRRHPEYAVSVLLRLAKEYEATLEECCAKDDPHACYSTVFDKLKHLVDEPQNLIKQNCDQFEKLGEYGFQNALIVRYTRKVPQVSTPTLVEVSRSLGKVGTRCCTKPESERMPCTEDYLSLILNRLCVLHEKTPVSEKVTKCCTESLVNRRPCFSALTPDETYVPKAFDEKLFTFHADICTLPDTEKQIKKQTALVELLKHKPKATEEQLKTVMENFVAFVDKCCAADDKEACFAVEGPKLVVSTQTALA

Row | Binder | binding result
1 | B1 | no binding
2 | B2 | no binding
